In article PMC7064531, “Structure of E3 ligase E6AP with a proteasome-binding site provided by substrate receptor hRpn10” (Nature Communications, 2020):

T1: GST-hRpn10^305–377 (human, UniProt P55036 305-377)
T1 construct: pGEX-6P-3; a PreScission site lies between GST and hRpn10; source: E. coli Rosetta 2 (DE3), purified (glutathione sepharose, glutathione elution, SEC); not shown: GST, N-terminal, kept
T1 sequence (looked up): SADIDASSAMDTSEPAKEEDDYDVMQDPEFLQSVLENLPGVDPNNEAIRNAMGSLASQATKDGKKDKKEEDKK

T2: hRpn10^305–377 (RAZUL, Rpn10 AZUL-binding domain) (human, UniProt P55036 305-377)
T2 construct: Isotope-labelled (15N, 13C, 2H) in some NMR samples; also called hRpn10 RAZUL; source: E. coli Rosetta 2 (DE3), purified (glutathione sepharose, PreScission cleavage, SEC); not shown: GST, N-terminal, cleaved
T2 sequence (looked up): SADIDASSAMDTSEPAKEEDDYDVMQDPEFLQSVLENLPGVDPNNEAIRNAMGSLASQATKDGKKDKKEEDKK

B1: His-hRpn10^196–377 (domain or fragment, human, UniProt P55036 196-377, looked up)
chain: MLGLGASDFEFGVDPSADPELALALRVSMEEQRQRQEEEARRAAAASAAEAGIATTGTEDSDDALLKMTISQQEFGRTGLPDLSSMTEEEQIAYAMQMSLQGAEFGQAESADIDASSAMDTSEPAKEEDDYDVMQDPEFLQSVLENLPGVDPNNEAIRNAMGSLASQATKDGKKDKKEEDKK
notes: pET14b with a thrombin site; the methods say that it was eluted with the His-tag intact; 15N-labelled for the NMR experiment with ubiquitin; source: E. coli BL21 (DE3), purified (Ni-NTA, imidazole elution, SEC); not shown: polyhistidine tag, N-terminal, kept
B2: His-hRpn10^full-length (natural protein, human, UniProt P55036 1-377, looked up)
chain: MVLESTMVCVDNSEYMRNGDFLPTRLQAQQDAVNIVCHSKTRSNPENNVGLITLANDCEVLTTLTPDTGRILSKLHTVQPKGKITFCTGIRVAHLALKHRQGKNHKMRIIAFVGSPVEDNEKDLVKLAKRLKKEKVNVDIINFGEEEVNTEKLTAFVNTLNGKDGTGSHLVTVPPGPSLADALISSPILAGEGGAMLGLGASDFEFGVDPSADPELALALRVSMEEQRQRQEEEARRAAAASAAEAGIATTGTEDSDDALLKMTISQQEFGRTGLPDLSSMTEEEQIAYAMQMSLQGAEFGQAESADIDASSAMDTSEPAKEEDDYDVMQDPEFLQSVLENLPGVDPNNEAIRNAMGSLASQATKDGKKDKKEEDKK
notes: human Rpn10 (hRpn10/PSMD4/S5a), full length; pET11d plasmid, a gift from Dr Fumio Hanaoka; also called His6-hRpn10^full-length; source: E. coli BL21 (DE3), purified (Ni-NTA, imidazole elution, SEC); not shown: His6, N-terminal, kept
B3: E6AP AZUL (amino-terminal zinc-binding domain of ubiquitin E3a ligase), amino acids 24 to 87 (domain or fragment, human, UniProt Q05086 24-87, looked up)
chain: MKRAAAKHLIERYYHQLTEGCGNEACTNEFCASCPTFLRMDNNAAAIKALELYKINAKLCDPHP
notes: E6AP/UBE3A AZUL domain, human, amino acids 24 to 87, subcloned from HA-E6AP isoform II; zinc sulfate in the buffers; Isotope-labelled (15N, 13C) in some NMR samples; also called AZUL domain; source: E. coli BL21 (DE3), purified (Ni-NTA, thrombin cleavage, SEC); not shown: polyhistidine tag, N-terminal, cleaved

Key:
Settings in all cases: both partners purified
ubiquitin = ubiquitin (UniProt P0CG48 1-76); assay: NMR titration; 2D NMR on 15N-hRpn10 196-377, ubiquitin added; 25 °C, 10 mM MOPS pH 6.5, 50 mM NaCl, 5 mM DTT, 10 μM zinc sulfate
[1] = molecular target: T3, full-length E6AP (Isoform II) (human, UniProt Q05086 1-875); assay: pull-down; 2 nmol His-tagged hRpn10 construct on Ni-NTA agarose, 200 pmol E6AP for 1 h; 10 mM MOPS pH 6.5, 50 mM NaCl, 5 mM 2-mercaptoethanol, 10 μM zinc sulfate; Coomassie staining
T3 construct: E6AP/UBE3A, isoform II, full length; catalytic cysteine C843 in isoform II; also called UBE3A; source: bought: UBPBio K1411

GST-hRpn10^305–377 = molecular target: T1, GST-hRpn10^305–377; assay: SPR; Biacore T200; GST-hRpn10 305-377 captured (800 RU) by anti-GST antibody on a CM5 chip, GST on the reference cell; E6AP AZUL 5-250 nM in HBS-P+ with 10 μM zinc sulfate, single cycle kinetics, triplicate
[2] = molecular target: T2, hRpn10^305–377 (RAZUL, Rpn10 …); assay: ITC; 25 °C, MicroCal iTC200; E6AP AZUL injected into hRpn10 305-377 (0.0405 mM) or hRpn10 322-366 peptides (0.01 mM) in the cell; 10 mM MOPS pH 6.5, 50 mM NaCl, 5 mM DTT, 10 μM zinc sulfate; one-site fit

T3 sequence (Q05086 whole entry, canonical isoform): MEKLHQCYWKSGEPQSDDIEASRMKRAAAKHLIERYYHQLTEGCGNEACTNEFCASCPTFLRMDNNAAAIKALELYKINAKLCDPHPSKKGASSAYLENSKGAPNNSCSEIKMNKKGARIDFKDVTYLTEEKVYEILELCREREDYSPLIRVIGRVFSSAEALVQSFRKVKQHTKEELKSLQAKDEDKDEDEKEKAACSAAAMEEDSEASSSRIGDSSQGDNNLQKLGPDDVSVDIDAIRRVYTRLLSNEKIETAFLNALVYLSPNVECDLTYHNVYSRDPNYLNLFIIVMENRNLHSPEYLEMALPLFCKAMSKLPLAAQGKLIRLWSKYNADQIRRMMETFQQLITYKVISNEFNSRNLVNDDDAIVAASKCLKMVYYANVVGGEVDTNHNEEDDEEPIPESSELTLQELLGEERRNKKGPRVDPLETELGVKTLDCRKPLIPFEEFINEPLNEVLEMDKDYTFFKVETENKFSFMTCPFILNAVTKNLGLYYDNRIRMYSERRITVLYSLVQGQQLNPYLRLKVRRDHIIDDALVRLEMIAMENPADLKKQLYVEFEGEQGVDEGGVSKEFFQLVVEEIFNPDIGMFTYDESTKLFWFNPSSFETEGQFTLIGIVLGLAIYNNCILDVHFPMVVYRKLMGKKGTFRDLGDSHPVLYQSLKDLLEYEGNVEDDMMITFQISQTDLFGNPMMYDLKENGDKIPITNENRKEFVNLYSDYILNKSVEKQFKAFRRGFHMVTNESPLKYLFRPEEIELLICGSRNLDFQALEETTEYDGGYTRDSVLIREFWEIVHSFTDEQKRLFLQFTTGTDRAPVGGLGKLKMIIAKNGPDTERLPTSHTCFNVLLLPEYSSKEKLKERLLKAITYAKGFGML

Binder	binding result (ubiquitin)	binding result [1]	Kd (GST-hRpn10^305–377)	Kd [2]
B1	binds	binds	–	–
B2	–	binds	–	–
B3	–	–	8.1 nM	11.6 nM
